Assay results reported in patent US12016922B2, “Stabilized aqueous antibody compositions” (Arecor Limited, priority 2012, dated 2024).

Legend:
rituximab = test: Aggregation of rituximab formulations on storage, % HMWS by size exclusion chromatography; type: physicochemical; conditions: trehalose 200 mM, pH 6.5, 40° C.; for effect on the rate of formation of HMWS: compared with background formulation without oligomer; for % HMWS 16 weeks / % HWMS 0 weeks: rituximab 100 mg/ml; for effect on the rate of aggregation: Example 5: rituximab 140 mg/ml; for % HMWS 0 weeks / % HMWS 12 weeks / % HMWS 26 weeks: rituximab 140 mg/ml
Protocol: (§1) Formulations of protein therapeutics, rituximab and certolizumab pegol, were prepared either in the absence or in the presence of various oligomers of ethyleneimine. The following products were used as the starting material: MabThera® (rituximab) and Cimzia® (certolizumab pegol). The compositions of the two products are as follows:
(§2) In order to prepare the formulations for testing, it was necessary to remove the original excipients and replace them with the selected excipients. The following procedure was used to prepare the formulations for testing: Original compositions were removed from the manufacturer's container and dialysed in 3.5 kDa cut-off dialysis cassettes (Thermo Pierce) at 2-8° C., using three changes for a minimum of 4 hours in each, including one overnight incubation.
(§3) The background solutions, containing the new excipients and adjusted to the required pH, were added to the dialysed proteins to achieve the required concentration of excipients and the protein in the final composition. The formulated samples were placed into storage at 40° C. or at 5° C., and stability was tested after a given period of time. The stability of the proteins was tested in compositions containing oligomers of ethyleneimine and compared to a ‘Control formulation’ with identical background in the absence of the oligomers.
(§4) The amount of high molecular weight species is measured using a 300×7.8 mm S3000 (or equivalent) size-exclusion column with a guard column. The mobile phase is potassium phosphate pH 6.5, with a flow rate of 0.4 ml/min, injection volume of 1 μl and detected at 210 and 280 nm. The results are expressed as % high molecular species (HMWS), i.e. sum of all peak areas corresponding to aggregated protein over the sum of all protein-related peaks on the chromatogram. […] However, within a given time-point the samples are tested using the column in the same condition, so the values generated within the time-point represent a very good indication of the relative stability of the protein in the compositions tested.
Rituximab was formulated at 100 mg/ml in the following background solution: EDTA (0.2 mM), methionine (1 mM), histidine (10 mM). The pH was adjusted to 6.5.
Rituximab was formulated at 100 mg/ml in the following background solution: EDTA (0.2 mM), methionine (1 mM), histidine (10 mM), in the presence of arginine (80 mM) as a tonicity modifier. The pH of all formulations was adjusted to 6.5. For comparison, the formulation of commercial liquid rituximab product (‘Original formulation’ also with rituximab at 100 mg/ml) was also included.
Rituximab was formulated at 100 mg/ml in the following background solution: EDTA (0.2 mM), methionine (1 mM) histidine (10 mM) and trehalose (200 mM). The pH was adjusted to 6.5.
Rituximab was formulated at 140 mg/ml in the following background solution: EDTA (0.2 mM), methionine (1 mM), histidine (10 mM) and trehalose (200 mM). The pH was adjusted to 6.5.

Certolizumab pegol = test: Aggregation of certolizumab pegol formulations on storage, % HMWS by size exclusion chromatography; type: physicochemical; conditions: Certolizumab pegol 100 mg/ml, 40° C.
Protocol: as §1, §2, §3, §4
Certolizumab pegol was formulated at 100 mg/ml in histidine buffer (10 mM, pH 6.0) in the presence of either NaCl (150 mM) or 1,2-propandiol (200 mM) as tonicity modifiers.

[1] = histidine 10 mM pH 6.0, 1,2-propanediol 200 mM, additive 3 mg/ml
[2] = histidine 10 mM pH 6.0, 1,2-propanediol 200 mM, additive 35.9 mg/ml
[3] = histidine 10 mM pH 6.0, NaCl 150 mM, additive 3 mg/ml
[4] = histidine 10 mM pH 6.0, NaCl 150 mM, additive 35.9 mg/ml

## 2K mPEG valerate PEI800 [Compound (4), reference compound]
rituximab; Example 4: rituximab 100 mg/ml
  effect on the rate of formation of HMWS: reduced the rate of formation of HMWS in a dose dependent manner
rituximab; additive 0.2 mg/ml
  % HMWS 16 weeks: 2.57%
  % HWMS 0 weeks: 0.69%
rituximab; additive 1 mg/ml
  % HMWS 16 weeks: 1.06%
  % HWMS 0 weeks: 0.79%
rituximab; additive 5 mg/ml
  % HMWS 16 weeks: 0.93%
  % HWMS 0 weeks: 0.69%

## 5K mPEG Propyl Triethylenetetramine Ethanol [Compound (2)]
rituximab
  effect on the rate of aggregation: reduction in the rate of aggregation
rituximab; additive 0.2 mg/ml
  % HMWS 0 weeks: 0.25%
  % HMWS 12 weeks: 1.31%
  % HMWS 26 weeks: 4.79%
rituximab; additive 1 mg/ml
  % HMWS 0 weeks: 0.40%
  % HMWS 12 weeks: 1.17%
  % HMWS 26 weeks: 4.44%
rituximab; additive 5 mg/ml
  % HMWS 0 weeks: 0.35%
  % HMWS 12 weeks: 0.97%
  % HMWS 26 weeks: 3.60%
Certolizumab pegol; [1]
  % HMWS 0 weeks: 0.64%
  % HMWS 8 weeks: 2.02%
Certolizumab pegol; [2]
  % HMWS 0 weeks: 0.81%
  % HMWS 8 weeks: 2.47%
Certolizumab pegol; [3]
  % HMWS 0 weeks: 0.66%
  % HMWS 8 weeks: 3.32%
Certolizumab pegol; [4]
  % HMWS 0 weeks: 0.79%
  % HMWS 8 weeks: 2.39%

## NCCNCCN [Diethylenetriamine]
rituximab; Example 4: rituximab 100 mg/ml
  rate of aggregation compared with Original formulation: lower
  effect on the rate of formation of HMWS: considerably reduce the rate of formation of HMWS in a dose dependent manner
rituximab
  effect on the rate of aggregation: considerable, dose-dependent reduction in the aggregation rate
rituximab; additive 0.2 mg/ml
  % HMWS 16 weeks: 0.94%
  % HWMS 0 weeks: 0.81%
rituximab; additive 1 mg/ml
  % HMWS 16 weeks: 0.70%
  % HWMS 0 weeks: 0.70%
  % HMWS 0 weeks: 0.38%
  % HMWS 12 weeks: 0.24%
rituximab; additive 5 mg/ml
  % HMWS 16 weeks: 0.67%
  % HWMS 0 weeks: 0.79%
  % HMWS 0 weeks: 0.37%
  % HMWS 12 weeks: 0.29%
  % HMWS 26 weeks: 1.83%
rituximab; additive 0.02 mg/ml
  % HMWS 0 weeks: 0.37%
  % HMWS 12 weeks: 0.91%
  % HMWS 26 weeks: 4.09%
rituximab; additive 0.1 mg/ml
  % HMWS 0 weeks: 0.38%
  % HMWS 12 weeks: 0.35%
  % HMWS 26 weeks: 0.89%
